The results in this text go back to patent publication US20050106141A1, “Hairless protein-interacting partner complexes and methods thereof for the beautification and/or improvement of mammalian skin” (The Procter & Gamble Company, priority 2003, published 2005).

This assay has as its target LexA BD-HRt (mouse). As to the kind of experiment: yeast two-hybrid library screen; number of positive clones with this identity.

LexA BD-HRt (mouse), sequence (P0A7C2 other isoform, or with tags, fused parts or gaps limits assumed): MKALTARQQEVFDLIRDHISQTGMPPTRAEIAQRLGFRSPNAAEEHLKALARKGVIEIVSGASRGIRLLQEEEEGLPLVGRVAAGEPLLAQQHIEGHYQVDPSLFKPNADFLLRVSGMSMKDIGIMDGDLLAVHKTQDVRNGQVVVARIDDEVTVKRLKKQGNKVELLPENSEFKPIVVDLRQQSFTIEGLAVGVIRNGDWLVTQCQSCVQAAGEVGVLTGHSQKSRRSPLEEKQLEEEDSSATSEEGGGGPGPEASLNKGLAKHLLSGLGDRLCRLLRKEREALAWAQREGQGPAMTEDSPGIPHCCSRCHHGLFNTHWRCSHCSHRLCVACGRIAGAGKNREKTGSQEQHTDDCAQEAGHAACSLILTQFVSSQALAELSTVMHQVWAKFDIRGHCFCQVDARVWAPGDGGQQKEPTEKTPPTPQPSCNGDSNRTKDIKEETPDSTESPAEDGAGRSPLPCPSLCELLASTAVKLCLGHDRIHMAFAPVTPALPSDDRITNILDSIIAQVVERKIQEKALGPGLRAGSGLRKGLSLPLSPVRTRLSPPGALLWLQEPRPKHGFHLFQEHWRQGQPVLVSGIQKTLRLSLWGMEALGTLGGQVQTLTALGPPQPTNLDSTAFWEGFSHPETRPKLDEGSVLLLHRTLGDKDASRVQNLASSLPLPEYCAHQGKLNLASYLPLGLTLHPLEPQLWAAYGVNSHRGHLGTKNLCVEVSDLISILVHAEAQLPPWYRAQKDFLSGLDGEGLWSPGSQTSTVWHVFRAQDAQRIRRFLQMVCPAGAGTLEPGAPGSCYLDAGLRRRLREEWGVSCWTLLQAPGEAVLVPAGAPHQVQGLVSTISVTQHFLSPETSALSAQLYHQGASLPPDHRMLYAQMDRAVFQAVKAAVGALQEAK

Regarding “Homo Sapiens HIC Protein Isoform P32 and Isoform 40 (from UniProt Q9P1T7 1-246)”, the Hits came out at 1.
